Laboratory results taken from paper PMC9527358, “Oligomeric state of the aspartate:alanine transporter from Tetragenococcus halophilus” (Journal of Biochemistry, 2022).
Blank lines part the entries; values can stand above or below the molecule they belong to.

Columns and labels:
[1] = molecular target: AspT L60C mutant (three endogenous Cys replaced with alanine, then leucine 60 replaced with Cys) (Tetragenococcus halophilus) (UniProt Q8L3K8); test: cross-linking; spontaneous inter-molecular disulphide; purified protein (0.5 ug) in SDS sample buffer without 2-mercaptoethanol (non-reducing) or with 5% (reducing), 37°C 30 min; SDS-PAGE (Coomassie) and western blot with a His-tag antibody
[2] = molecular target: the molecule itself; test: SEC-MALS; purified AspT in DDM (2.4 mg/ml, dialysed); Superdex 200 Increase 10/300 GL; 20 mM HEPES-NaOH pH 7.0, 500 mM NaCl, 200 mM Asp-KOH, 0.01% DDM, 20% glycerol; 0.8 ml/min; MALS, RI and UV detectors

stoichiometry N [1]: 2
Molecule: AspT L60C mutant (three endogenous Cys replaced with alanine, then leucine 60 replaced with Cys) (from UniProt Q8L3K8 1-543) (natural protein)

B1: aspartate:alanine antiporter (AspT) of Tetragenococcus halophilus, wild type, histidine-tagged (natural protein, UniProt Q8L3K8 1-543, looked up)
chain: MNAIGNFLVGTPVFTIFICLALGYLLGKLKIGSFTLGATVGVLIVALLIGQLGVFPRDTLLGDIFFDFFMFAIGYRVGPSFISSMKKFGAKIVYATLIFLVSAFIVAYACFKMFHIGPGIAAGIIAGGLTQSAVIGSSLETISKLPISDHLKTLYSNQIPIVYTLTYVFGTIGVLIFLRDIMPKLMHIDLKKQAVKTAKELDMIPVPVIVASTHFYTINDGSSLIGQTLGTVNTKFAKGLVAAGLNDSADMASVINAGDVLAISGGIDEIGRAVQEFNLLEVTGKTKAYVSKQVVLKKNFSADVLKNAQDKGVLVATLAGDVMDPAQFSTLKPAESVTLVGQKDAVSEVQSQLGRLRAAENIINYSWFALGIALSAALGIVGTKVSGVPIALGGGTASLIVGLVQSIYRDKHAHMDTIPDSLLEFFQSIGLNLFIATVGLSAAKTFISAIQSMGISVLLIGAVISILPHIITFVICYYLMKMEPISIIGAQTGADTLSAALNDVSERVGSDASPFFAAAVAPAYAIGNIFLTLMGPIFIVLLS
notes: aspartate:alanine antiporter AspT, Tetragenococcus halophilus, 543 amino-acid residues (57.2 kDa); expressed from the asp operon in pTrc99A (pTrcAspD/T-His); also called AspT WT; WT; source: Ni Sepharose Excel and SEC for the comparison with L60C; not shown: His6, internal (in loop 5), kept
stoichiometry N [2]: 2
